Positions count from the first letter of the chain named. Names and notes keep the numbering of the source.
T1: recombinant human C1r2s2 tetramer (human, UniProt P09871 16-688; P00736 18-705)
T1 construct: C1s and C1r co-expressed in HEK293/FreeStyle 293-F and purified from conditioned medium
T1 chain 1: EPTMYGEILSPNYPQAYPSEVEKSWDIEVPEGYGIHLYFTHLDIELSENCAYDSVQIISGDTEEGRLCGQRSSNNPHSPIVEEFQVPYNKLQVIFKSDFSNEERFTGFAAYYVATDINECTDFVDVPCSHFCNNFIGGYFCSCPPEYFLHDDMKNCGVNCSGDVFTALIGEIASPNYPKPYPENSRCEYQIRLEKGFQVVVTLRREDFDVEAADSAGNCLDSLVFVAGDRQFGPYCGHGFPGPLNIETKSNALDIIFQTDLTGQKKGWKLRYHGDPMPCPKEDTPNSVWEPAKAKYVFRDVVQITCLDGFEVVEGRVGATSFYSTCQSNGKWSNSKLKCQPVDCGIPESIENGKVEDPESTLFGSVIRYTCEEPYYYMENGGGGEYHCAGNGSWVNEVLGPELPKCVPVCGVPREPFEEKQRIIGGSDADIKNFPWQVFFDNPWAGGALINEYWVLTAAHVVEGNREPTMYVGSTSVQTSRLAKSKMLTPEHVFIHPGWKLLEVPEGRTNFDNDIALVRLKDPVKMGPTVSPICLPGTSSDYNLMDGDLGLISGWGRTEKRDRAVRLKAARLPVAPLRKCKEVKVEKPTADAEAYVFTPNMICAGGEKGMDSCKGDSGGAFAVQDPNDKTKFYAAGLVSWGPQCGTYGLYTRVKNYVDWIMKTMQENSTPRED
T1 chain 2: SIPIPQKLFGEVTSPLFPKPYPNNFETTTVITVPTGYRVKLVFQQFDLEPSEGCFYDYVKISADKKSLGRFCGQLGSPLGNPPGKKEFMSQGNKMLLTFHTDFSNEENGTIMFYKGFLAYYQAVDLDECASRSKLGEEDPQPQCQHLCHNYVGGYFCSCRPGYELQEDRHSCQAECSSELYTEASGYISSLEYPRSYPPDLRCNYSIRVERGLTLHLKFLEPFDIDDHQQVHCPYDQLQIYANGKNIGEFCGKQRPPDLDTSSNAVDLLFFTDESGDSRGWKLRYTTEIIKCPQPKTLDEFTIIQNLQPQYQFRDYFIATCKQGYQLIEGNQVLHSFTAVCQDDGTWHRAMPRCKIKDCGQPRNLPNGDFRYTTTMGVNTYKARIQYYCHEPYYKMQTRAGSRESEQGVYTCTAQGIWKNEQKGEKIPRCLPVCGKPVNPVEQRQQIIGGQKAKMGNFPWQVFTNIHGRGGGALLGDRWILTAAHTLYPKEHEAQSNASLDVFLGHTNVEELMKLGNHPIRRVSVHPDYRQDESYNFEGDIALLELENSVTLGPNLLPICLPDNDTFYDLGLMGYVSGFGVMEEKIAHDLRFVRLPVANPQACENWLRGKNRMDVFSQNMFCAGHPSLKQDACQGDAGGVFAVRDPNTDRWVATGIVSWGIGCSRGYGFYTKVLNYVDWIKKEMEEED

B1: COS0637cc-TT91R (antibody, human IgG1)
heavy: QSLEESGGRLVTPGTPLTLTCTASGFSLSAYAMNWVRQAPGKGLEWIGLIYGSGSTFYASWAKGRFTISKTSTTVDLKMTSLTTEDTATYFCARGRSVNYNSDFKLWGPGTLVTVSSASTKGPSVFPLAPSSKSTSGGTAALGCLVKDYFPEPVTVSWNSGALTSGVHTFPAVLQSSGLYSLSSVVTVPSSSLGTQTYICNVNHKPSNTKVDKRVEPKSCDKTHTCPPCPAPEYLGGDSVFLFPPKPKDVLMISRTPEVTCVVIDVSHEDPEVKFNWYVDGVEVHNAKTKPREEQYNSTYRVVSVLPVLHRDWLNGKEYKCKVSNKALPKPIEKTISKAKGQRREPQVYTLPPSREEMTKNQVSLTCLVKGFYPSDIAVEWESNGQPENNYKTTPPVLDSDGSFFLYSKLTVDKSRWQQGNVFSCSVLHEALHAHTTRKELSLSP
light: QVLTQTPSSVSAAVGGTVTINCQASQSLHDKKNLAWYQHKPGQRPNLLIYGASTLESGVPSRFKGSGSGTEYTLTISDLECDDAAAYYCQGEFSCSSADCNTFGGGTKVEIKRTVAAPSVFIFPPSDEQLKSGTASVVCLLNNFYPREAKVQWKVDNALQSGNSQESVTEQDSKDCTYSLSSTLTLSKADYEKHKVYACEVTHQGLSSPVTKSFNRGEC
notes: Rabbit variable regions (chimera) with modified human IgG1 CH TT91R and modified human CL KOMC; also called COS637cc-TT91R
B2: COS0637pHv7-TT91R (antibody, V domains shown)
VH: QVQLVESGGGVVQPGRSLRLSCAASGFTFSAYAMNWIRQPPGKGLEWIGLIYGSGHEFYASWAEERVTISVDTSKNQFSLKLSSVTAADTAVYYCARGRSKNYNSDFHLWGQGTLVTVSS
VL: DIQMTQSPSSLSASVGDRVTITCQASQILHDKKNLAWYQQKPGQPPKLLIYQASQLESGVPSRFSGSGSGTDFTLTISSLQPEDFATYYCHGEFSYSSADLNTFGQGTKVEIKR
B3: COS0637pHv1-TT91R (antibody, V domains shown)
VH: B2 VH with G55K, H56S, E57T, E65G
VL: B2 VL with I28S, Q52G, Q55T, H91Q, Y96C, L101C
B4: COS0637h-TT91R (antibody, human IgG1, V domains shown)
VH: B2 VH with H56S, E57T, E64K, E65G, K101V, H108K
VL: B2 VL with I28S, Q52G, Q55T, H91Q, Y96C, L101C
notes: Humanized COS0637cc; modified human IgG1 CH TT91R, human CL SK1
B5: COS0637pHv2-TT91R (antibody, V domains shown)
VH: B2 VH with T28R, S54K, H56S, E57T, E64K, K101V
VL: B2 VL with I28S, Q52G, Q55T, H91Q, Y96C, L101C
B6: AL0736 (antibody, human IgG1, kappa, V domains shown)
VH: B2 VH with H56S, E57T, E64K, E65G, K101V
VL: B2 VL with I28S, Q52G, Q55T, H91Q, Y96R
notes: COS0637temp with VL C94R/C95dL (Kabat), already in the VL entry
B7: AL0747 (antibody, human IgG1, kappa, V domains shown)
VH: B2 VH with H56S, E57T, E64K, E65G, K101V
VL: B2 VL with I28S, Q52G, Q55T, H91Q, Y96M, L101R
notes: COS0637temp with VL C94M/C95dR (Kabat), already in the VL entry
B8: AL0753 (antibody, human IgG1, kappa, V domains shown)
VH: B2 VH with H56S, E57T, E64K, E65G, K101V
VL: B2 VL with I28S, Q52G, Q55T, H91Q, Y96V, L101V
notes: COS0637temp with VL C94V/C95dV (Kabat), already in the VL entry
B9: AL0746 (antibody, human IgG1, kappa, V domains shown)
VH: B2 VH with H56S, E57T, E64K, E65G, K101V
VL: B2 VL with I28S, Q52G, Q55T, H91Q, Y96R, L101Y
notes: COS0637temp with VL C94R/C95dY (Kabat), already in the VL entry
B10: AL0738 (antibody, human IgG1, kappa, V domains shown)
VH: B2 VH with H56S, E57T, E64K, E65G, K101V
VL: B2 VL with I28S, Q52G, Q55T, H91Q, Y96L
notes: COS0637temp with VL C94L/C95dL (Kabat), already in the VL entry
B11: AL0741 (antibody, human IgG1, kappa, V domains shown)
VH: B2 VH with H56S, E57T, E64K, E65G, K101V
VL: B2 VL with I28S, Q52G, Q55T, H91Q, Y96W, L101Q
notes: COS0637temp with VL C94W/C95dQ (Kabat), already in the VL entry
B12: AL0751 (antibody, human IgG1, kappa, V domains shown)
VH: B2 VH with H56S, E57T, E64K, E65G, K101V
VL: B2 VL with I28S, Q52G, Q55T, H91Q, Y96A, L101V
notes: COS0637temp with VL C94A/C95dV (Kabat), already in the VL entry
B13: AL0748 (antibody, human IgG1, kappa, V domains shown)
VH: B2 VH with H56S, E57T, E64K, E65G, K101V
VL: B2 VL with I28S, Q52G, Q55T, H91Q, Y96I, L101F
notes: COS0637temp with VL C94I/C95dF (Kabat), already in the VL entry
B14: AL0742 (antibody, human IgG1, kappa, V domains shown)
VH: B2 VH with H56S, E57T, E64K, E65G, K101V
VL: B2 VL with I28S, Q52G, Q55T, H91Q, Y96W, L101R
notes: COS0637temp with VL C94W/C95dR (Kabat), already in the VL entry
B15: AL0739 (antibody, human IgG1, kappa, V domains shown)
VH: B2 VH with H56S, E57T, E64K, E65G, K101V
VL: B2 VL with I28S, Q52G, Q55T, H91Q, Y96V
notes: COS0637temp with VL C94V/C95dL (Kabat), already in the VL entry
B16: AL0752 (antibody, human IgG1, kappa, V domains shown)
VH: B2 VH with H56S, E57T, E64K, E65G, K101V
VL: B2 VL with I28S, Q52G, Q55T, H91Q, Y96V, L101A
notes: COS0637temp with VL C94V/C95dA (Kabat), already in the VL entry
B17: AL0749 (antibody, human IgG1, kappa, V domains shown)
VH: B2 VH with H56S, E57T, E64K, E65G, K101V
VL: B2 VL with I28S, Q52G, Q55T, H91Q, Y96L, L101R
notes: COS0637temp with VL C94L/C95dR (Kabat), already in the VL entry
B18: AL0745 (antibody, human IgG1, kappa, V domains shown)
VH: B2 VH with H56S, E57T, E64K, E65G, K101V
VL: B2 VL with I28S, Q52G, Q55T, H91Q, Y96E
notes: COS0637temp with VL C94E/C95dL (Kabat), already in the VL entry
B19: AL0750 (antibody, human IgG1, kappa, V domains shown)
VH: B2 VH with H56S, E57T, E64K, E65G, K101V
VL: B2 VL with I28S, Q52G, Q55T, H91Q, Y96M
notes: COS0637temp with VL C94M/C95dL (Kabat), already in the VL entry

Target: T1, recombinant human C1r2s2 tetramer
Experiment: SPR (BIACORE T200), 37 C, ratio of KD at pH 5.8 to KD at pH 7.4
Experimental: (§1) KD (dissociation constant) value of each samples at pH 7.4 and pH 5.8 are determined at 37 degrees C. using BIACORE® T200 instrument (GE Healthcare). Purified Mouse Anti-Human Ig kappa Light Chain (GE Healthcare) can be immobilized onto all flow cells of a CMS sensor chip using an amine coupling kit (GE Healthcare). 20 mM ACES, 150 mM NaCl, 1.2 mM CaCl2, 1 mg/mL BSA (IgG-free), 1 mg/mL CMD, 0.05% Tween® 20, 0.005% NaN3, pH 7.4 or pH 5.8 buffer were used as running buffer. Each antibody can be captured onto the sensor surface by Anti-Human Ig kappa Light chain. Antibody capture levels are aimed at 50 resonance unit (RU). […] Sensor surface is regenerated each cycle with, e.g., Glycine pH 2.0 (GE Healthcare). KD values were obtained using BIACORE® T200 Evaluation software, version 2.0 (GE Healthcare).

| KD (pH 5.8)/KD (pH 7.4) | Binder |
| --- | --- |
| 10 | B1 |
| 72 | B2 |
| 209 | B3 |
| 14 | B4 |
| 44 | B5 |

Target: T1, recombinant human C1r2s2 tetramer
Experiment: SPR (BIACORE), antibody captured by ProL, human C1r2s2 injected at 100 nM, pH 7.4, 37 C
Experimental: Analysis of interaction between antibody variants and the human C1r2s2 prepared as mentioned above was carried out at pH7.4, at 37 degrees C. using BIACORE® T200 instrument (GE Healthcare) or BIACORE® 4000 (GE Healthcare). ProL (BioVision) was immobilized onto a CM4 sensorchip using amine coupling kit (GE Healthcare) according to the recommended settings by GE Healthcare. Antibodies and analytes were diluted into the respective running buffers, ACES pH7.4 (20 mM ACES (N-(2-Acetamido)-2-aminoethanesulfonic acid), 150 mM NaCl, 1.2 mM CaCl2, 1 mg/ml bovine serum albumin (BSA), 1 mg/ml CMD (CM-Dextran sodium salt), 0.05% Tween® 20 (polysorbate 20), 0.005 w/v % NaN3). Each antibody was captured onto the sensor surface by ProL. Antibody capture levels were aimed at 200 resonance units (RU). Then, recombinant human C1r2s2 was injected at concentrations of 25 and 100 nM followed by dissociation at pH7.4. The surface was regenerated using 10 mM Glycine-HCl, pH1.5.

| binding result | Binder |
| --- | --- |
| no binding (tested: 100 nM) | B6 |
| no binding (tested: 100 nM) | B7 |
| no binding (tested: 100 nM) | B8 |
| no binding (tested: 100 nM) | B9 |
| no binding (tested: 100 nM) | B10 |
| no binding (tested: 100 nM) | B11 |
| no binding (tested: 100 nM) | B12 |
| no binding (tested: 100 nM) | B13 |
| no binding (tested: 100 nM) | B14 |
| no binding (tested: 100 nM) | B15 |
| no binding (tested: 100 nM) | B16 |
| no binding (tested: 100 nM) | B17 |
| no binding (tested: 100 nM) | B18 |
| no binding (tested: 100 nM) | B19 |

Target: T1, recombinant human C1r2s2 tetramer
Experiment: SPR (BIACORE T200), 37 C, Ab captured via anti-human Ig kappa, human C1r2s2 as analyte, pH 5.8
Experimental: as §1

| Kd [nM] | Binder |
| --- | --- |
| 43.3 | B1 |
| 353 | B2 |
| 3600 | B3 |
| 362 | B4 |
| 588 | B5 |

Target: T1, recombinant human C1r2s2 tetramer
Experiment: SPR (BIACORE T200), 37 C, Ab captured via anti-human Ig kappa, human C1r2s2 as analyte, pH 7.4
Experimental: as §1

| Kd [nM] | Binder |
| --- | --- |
| 4.48 | B1 |
| 4.9 | B2 |
| 17.2 | B3 |
| 25.4 | B4 |
| 13.4 | B5 |

Reference: US20240092889A1 (Chugai, published 2024)
